We go through one substance from patent US20240200046.

For the series, the system named is T1, MIT 11-12x.40 meganuclease (MIT 11-12) (artificial (I-CreI derived, Chlamydomonas reinhardtii)).
T1 sequence: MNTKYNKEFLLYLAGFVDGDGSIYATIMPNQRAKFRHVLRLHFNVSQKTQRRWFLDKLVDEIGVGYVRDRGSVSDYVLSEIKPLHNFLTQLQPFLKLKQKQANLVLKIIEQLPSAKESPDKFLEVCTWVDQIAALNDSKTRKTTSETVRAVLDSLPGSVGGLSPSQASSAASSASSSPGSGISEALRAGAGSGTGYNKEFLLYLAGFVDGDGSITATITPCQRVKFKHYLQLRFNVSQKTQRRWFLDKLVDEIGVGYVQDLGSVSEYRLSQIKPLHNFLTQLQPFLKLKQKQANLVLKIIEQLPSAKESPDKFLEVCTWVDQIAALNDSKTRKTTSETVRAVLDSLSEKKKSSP
As to the kind of experiment: cell_activity. Particulars: CHO split-GFP recombination assay, 48 h.

Consider wild-type mtDNA tRNA-Ala target site, for which the activity is less than 5 % GFP+ cells.
